± gives the standard deviation of the averaged measurements.
Assay: total protein half-life in vivo (active degradation + dilution); higher = more stable protein
[1] = E. coli NCM3722 delta-clpP delta-lon delta-hslV, growth: N-lim chemostat, doubling time 6 h
[2] = E. coli NCM3722 delta-clpP, growth: N-lim chemostat, doubling time 6 h
[3] = E. coli NCM3722 delta-hslV, growth: N-lim chemostat, doubling time 6 h
[4] = E. coli NCM3722 delta-lon, growth: N-lim chemostat, doubling time 6 h
[5] = E. coli NCM3722 delta-smpB, growth: N-lim chemostat, doubling time 6 h
[6] = wild type E. coli NCM3722, growth: C-lim chemostat, doubling time 3 h
[7] = wild type E. coli NCM3722, growth: C-lim chemostat, doubling time 6 h
[8] = wild type E. coli NCM3722, growth: C-lim chemostat, doubling time 12 h
[9] = wild type E. coli NCM3722, growth: N-lim chemostat, doubling time 6 h
[10] = wild type E. coli NCM3722, growth: N-lim chemostat, doubling time 12 h
[11] = wild type E. coli NCM3722, growth: P-lim chemostat, doubling time 6 h
[12] = wild type E. coli NCM3722, growth: P-lim chemostat, doubling time 12 h

Sequence	total protein half-life in vivo [1] [h]	total protein half-life in vivo [2] [h]	total protein half-life in vivo [3] [h]	total protein half-life in vivo [4] [h]	total protein half-life in vivo [5] [h]	total protein half-life in vivo [6] [h]	total protein half-life in vivo [7] [h]	total protein half-life in vivo [8] [h]	total protein half-life in vivo [9] [h]	total protein half-life in vivo [10] [h]	total protein half-life in vivo [11] [h]	total protein half-life in vivo [12] [h]
MSKQQIGVVGMAVMGRNLALNIESRGYTVSIFNRSREKTEEVIAENPGKKLVPYYTVKEFVESLETPRRILLMVKAGAGTDAAIDSLKPYLDKGDIIIDGGNTFFQDTIRRNRELSAEGFNFIGTGVSGGEEGALKGPSIMPGGQKEAYELVAPILTKIAAVAEDGEPCVTYIGADGAGHYVKMVHNGIEYGDMQLIAEAYSLLKGGLNLTNEELAQTFTEWNNGELSSYLIDITKDIFTKKDEDGNYLVDVILDEAANKGTGKWTSQSALDLGEPLSLITESVFARYISSLKDQRVAASKVLSGPQAQPAGDKAEFIEKVRRALYLGKIVSYAQGFSQLRAASEEYNWDLNYGEIAKIFRAGCIIRAQFLQKITDAYAENPQIANLLLAPYFKQIADDYQQALRDVVAYAVQNGIPVPTFSAAVAYYDSYRAAVLPANLIQAQRDYFGAHTYKRIDKEGVFHTEWLD	5.22 ± 0.18	4.9 ± 0.45	5 ± 0.17	5.58 ± 0.25	4.68 ± 0.083	3.21 ± 0.06	5.85 ± 0.4	10 ± 0.24	4.73 ± 0.23	8.31 ± 0.24	6.054 ± 0.042	12.9 ± 1.8
MSKRLPPLNALRVFDAAARHLSFTRAAEELFVTQAAVSHQIKSLEDFLGLKLFRRRNRSLLLTEEGQSYFLDIKEIFSQLTEATRKLQARSAKGALTVSLLPSFAIHWLVPRLSSFNSAYPGIDVRIQAVDRQEDKLADDVDVAIFYGRGNWPGLRVEKLYAEYLLPVCSPLLLTGEKPLKTPEDLAKHTLLHDASRRDWQTYTRQLGLNHINVQQGPIFSHSAMVLQAAIHGQGVALANNVMAQSEIEAGRLVCPFNDVLVSKNAFYLVCHDSQAELGKIAAFRQWILAKAAAEQEKFRFRYEQ [P0A9F6]	5.93 ± 0.27		5.94 ± 0.4		5.73 ± 0.34	3.2 ± 0.13	6.59 ± 0.7	11 ± 0.54	6.86 ± 0.45	12.1 ± 0.34	5.82 ± 0.081	13.3 ± 1.3
MSKRRVVVTGLGMLSPVGNTVESTWKALLAGQSGISLIDHFDTSAYATKFAGLVKDFNCEDIISRKEQRKMDAFIQYGIVAGVQAMQDSGLEITEENATRIGAAIGSGIGGLGLIEENHTSLMNGGPRKISPFFVPSTIVNMVAGHLTIMYGLRGPSISIATACTSGVHNIGHAARIIAYGDADVMVAGGAEKASTPLGVGGFGAARALSTRNDNPQAASRPWDKERDGFVLGDGAGMLVLEEYEHAKKRGAKIYAELVGFGMSSDAYHMTSPPENGAGAALAMANALRDAGIEASQIGYVNAHGTSTPAGDKAEAQAVKTIFGEAASRVLVSSTKSMTGHLLGAAGAVESIYSILALRDQAVPPTINLDNPDEGCDLDFVPHEARQVSGMEYTLCNSFGFGGTNGSLIFKKI [P0AAI5]	6.45 ± 1.9	4.94 ± 0.21	4.87 ± 0.28	5.15 ± 0.41	4.89 ± 0.14	3.121 ± 0.02	6.09 ± 0.35	12.1 ± 0.42	4.89 ± 0.34	8.33 ± 0.17	6.13 ± 0.29	12.6 ± 0.18
MSKRYFVTGTDTEVGKTVASCALLQAAKAAGYRTAGYKPVASGSEKTPEGLRNSDALALQRNSSLQLDYATVNPYTFAEPTSPHIISAQEGRPIESLVMSAGLRALEQQADWVLVEGAGGWFTPLSDTFTFADWVTQEQLPVILVVGVKLGCINHAMLTAQVIQHAGLTLAGWVANDVTPPGKRHAEYMTTLTRMIPAPLLGEIPWLAENPENAATGKYINLALL	5.58 ± 0.28	5.37 ± 1.1	4.33 ± 0.7	5.17 ± 0.34	4.64 ± 0.34	3.06 ± 0.18	6.24 ± 0.58		5.44 ± 0.92	9.86 ± 1.2	5.77 ± 0.12	12.5 ± 0.99
MSKSDVFHLGLTKNDLQGATLAIVPGDPDRVEKIAALMDKPVKLASHREFTTWRAELDGKPVIVCSTGIGGPSTSIAVEELAQLGIRTFLRIGTTGAIQPHINVGDVLVTTASVRLDGASLHFAPLEFPAVADFECTTALVEAAKSIGATTHVGVTASSDTFYPGQERYDTYSGRVVRHFKGSMEEWQAMGVMNYEMESATLLTMCASQGLRAGMVAGVIVNRTQQEIPNAETMKQTESHAVKIVVEAARRLL	6.83 ± 0.33	6.27 ± 0.78	7.09 ± 0.43	5.95 ± 0.47	5.823 ± 0.029	3.23 ± 0.11	6.246 ± 0.033	13.7 ± 2.1	5.75 ± 0.092	10.7 ± 0.74	5.99 ± 0.2	12.4 ± 0.29
MSKSHPRWRLAKKILTWLFFIAVIVLLVVYAKKVDWEEVWKVIRDYNRVALLSAVGLVVVSYLIYGCYDLLARFYCGHKLAKRQVMLVSFICYAFNLTLSTWVGGIGMRYRLYSRLGLPGSTITRIFSLSITTNWLGYILLAGIIFTAGVVELPDHWYVDQTTLRILGIGLLMIIAVYLWFCAFAKHRHMTIKGQKLVLPSWKFALAQMLISSVNWMVMGAIIWLLLGQSVNYFFVLGVLLVSSIAGVIVHIPAGIGVLEAVFIALLAGEHTSKGTIIAALLAYRVLYYFIPLLLALICYLLLESQAKKLRAKNEAAM					4.62 ± 0.87							
MSKSTAEIRQAFLDFFHSKGHQVVASSSLVPHNDPTLLFTNAGMNQFKDVFLGLDKRNYSRATTSQRCVRAGGKHNDLENVGYTARHHTFFEMLGNFSFGDYFKHDAIQFAWELLTSEKWFALPKERLWVTVYESDDEAYEIWEKEVGIPRERIIRIGDNKGAPYASDNFWQMGDTGPCGPCTEIFYDHGDHIWGGPPGSPEEDGDRYIEIWNIVFMQFNRQADGTMEPLPKPSVDTGMGLERIAAVLQHVNSNYDIDLFRTLIQAVAKVTGATDLSNKSLRVIADHIRSCAFLIADGVMPSNENRGYVLRRIIRRAVRHGNMLGAKETFFYKLVGPLIDVMGSAGEDLKRQQAQVEQVLKTEEEQFARTLERGLALLDEELAKLSGDTLDGETAFRLYDTYGFPVDLTADVCRERNIKVDEAGFEAAMEEQRRRAREASGFGADYNAMIRVDSASEFKGYDHLELNGKVTALFVDGKAVDAINAGQEAVVVLDQTPFYAESGGQVGDKGELKGANFSFAVEDTQKYGQAIGHIGKLAAGSLKVGDAVQADVDEARRARIRLNHSATHLMHAALRQVLGTHVSQKGSLVNDKVLRFDFSHNEAMKPEEIRAVEDLVNTQIRRNLPIETNIMDLEAAKAKGAMALFGEKYDERVRVLSMGDFSTELCGGTHASRTGDIGLFRIISESGTAAGVRRIEAVTGEGAIATVHADSDRLSEVAHLLKGDSNNLADKVRSVLERTRQLEKELQQLKEQAAAQESANLSSKAIDVNGVKLLVSELSGVEPKMLRTMVDDLKNQLGSTIIVLATVVEGKVSLIAGVSKDVTDRVKAGELIGMVAQQVGGKGGGRPDMAQAGGTDAAALPAALASVKGWVSAKLQ	5.338 ± 0.0061	5.33 ± 0.19	5.65 ± 0.48	5.67 ± 0.09	5.06 ± 0.068	3.04 ± 0.14	6.01 ± 0.44	11 ± 0.2	5.11 ± 0.11	9.15 ± 0.27	6.2 ± 0.075	11.9 ± 0.62
MSKVLVLKSSILAGYSQSNQLSDYFVEQWREKHSADEITVRDLAANPIPVLDGELVGALRPSDAPLTPRQQEALALSDELIAELKAHDVIVIAAPMYNFNISTQLKNYFDLVARAGVTFRYTENGPEGLVTGKKAIVITSRGGIHKDGPTDLVTPYLSTFLGFIGITDVKFVFAEGIAYGPEMAAKAQSDAKAAIDSIVSA	2.22 ± 0.11	1.48 ± 0.24	1.34 ± 0.044	1.5 ± 0.044	1.49 ± 0.15	2.81 ± 0.096	3.39 ± 0.25	5.43 ± 0.92	1.52 ± 0.16	1.85 ± 0.14	4.25 ± 0.14	6.31 ± 0.4
MSKVTPQPKIGFVSLGCPKNLVDSERILTELRTEGYDVVPSYDDADMVIVNTCGFIDSAVQESLEAIGEALNENGKVIVTGCLGAKEDQIREVHPKVLEITGPHSYEQVLEHVHHYVPKPKHNPFLSLVPEQGVKLTPRHYAYLKISEGCNHRCTFCIIPSMRGDLVSRPIGEVLSEAKRLVDAGVKEILVISQDTSAYGVDVKHRTGFHNGEPVKTSMVSLCEQLSKLGIWTRLHYVYPYPHVDDVIPLMAEGKILPYLDIPLQHASPRILKLMKRPGSVDRQLARIKQWREICPELTLRSTFIVGFPGETEEDFQMLLDFLKEARLDRVGCFKYSPVEGADANALPDQVPEEVKEERWNRFMQLQQQISAERLQEKVGREILVIIDEVDEEGAIGRSMADAPEIDGAVYLNGETNVKPGDILRVKVEHADEYDLWGSRV [P0AEI4]	4.5 ± 0.2	2.28 ± 0.062	3.6 ± 0.089	4.08 ± 0.84	2.94 ± 0.053	2.36 ± 0.54	4.39 ± 0.39	7.02 ± 1.1	3.47 ± 0.46	5.31 ± 0.15	4.37 ± 0.28	6.68 ± 0.64
MSLAKDNIWKLLAPLVVMGVMFLIPVPDGMPPQAWHYFAVFVAMIVGMILEPIPATAISFIAVTICVIGSNYLLFDAKELADPAFNAQKQALKWGLAGFSSTTVWLVFGAFIFALGYEVSGLGRRIALFLVKFMGKRTLTLGYAIVIIDILLAPFTPSNTARTGGTVFPVIKNLPPLFKSFPNDPSARRIGGYLMWMMVISTSLSSSMFVTGAAPNVLGLEFVSKIAGIQISWLQWFLCFLPVGVILLIIAPWLSYVLYKPEITHSEEVATWAGDELKTMGALTRREWTLIGLVLLSLGLWVFGSEVINATAVGLLAVSLMLALHVVPWKDITRYNSAWNTLVNLATLVVMANGLTRSGFIDWFAGTMSTHLEGFSPNATVIVLVLVFYFAHYLFASLSAHTATMLPVILAVGKGIPGVPMEQLCILLVLSIGIMGCLTPYATGPGVIIYGCGYVKSKDYWRLGAIFGVIYISMLLLVGWPILAMWN [P0AE74]		7.68										
MSLLAQLDQKIAANGGLIVSCQPVPDSPLDKPEIVAAMALAAEQAGAVAIRIEGVANLQATRAVVSVPIIGIVKRDLEDSPVRITAYIEDVDALAQAGADIIAIDGTDRPRPVPVETLLARIHHHGLLAMTDCSTPEDGLACQKLGAEIIGTTLSGYTTPETPEEPDLALVKTLSDAGCRVIAEGRYNTPAQAADAMRHGAWAVTVGSAITRLEHICQWYNTAMKKAVL [P0A761]		5.64	3.95	4.21 ± 0.027	4.27	2.9 ± 0.27	5.06 ± 0.56	10.3 ± 1.4	4.14 ± 0.36	7.56	5.84 ± 1	9.47 ± 0.41
MSLNFLDFEQPIAELEAKIDSLTAVSRQDEKLDINIDEEVHRLREKSVELTRKIFADLGAWQIAQLARHPQRPYTLDYVRLAFDEFDELAGDRAYADDKAIVGGIARLDGRPVMIIGHQKGRETKEKIRRNFGMPAPEGYRKALRLMQMAERFKMPIITFIDTPGAYPGVGAEERGQSEAIARNLREMSRLGVPVVCTVIGEGGSGGALAIGVGDKVNMLQYSTYSVISPEGCASILWKSADKAPLAAEAMGIIAPRLKELKLIDSIIPEPLGGAHRNPEAMAASLKAQLLADLADLDVLSTEDLKNRRYQRLMSYGYA [P0ABD5]	6.13 ± 0.7		6.72 ± 0.71	7.18 ± 0.38	5.526 ± 0.043	3.63 ± 0.15	7.76 ± 0.089	12.5 ± 0.96	6.34 ± 0.58	11.4 ± 2.5	6.27 ± 0.27	13.9 ± 1.9
MSLNLVSEQLLAANGLKHQDLFAILGQLAERRLDYGDLYFQSSYHESWVLEDRIIKDGSYNIDQGVGVRAISGEKTGFAYADQISLLALEQSAQAARTIVRDSGDGKVQTLGAVEHSPLYTSVDPLQSMSREEKLDILRRVDKVAREADKRVQEVTASLSGVYELILVAATDGTLAADVRPLVRLSVSVLVEEDGKRERGASGGGGRFGYEFFLADLDGEVRADAWAKEAVRMALVNLSAVAAPAGTMPVVLGAGWPGVLLHEAVGHGLEGDFNRRGTSVFSGQVGELVASELCTVVDDGTMVDRRGSVAIDDEGTPGQYNVLIENGILKGYMQDKLNARLMGMTPTGNGRRESYAHLPMPRMTNTYMLPGKSTPQEIIESVEYGIYAPNFGGGQVDITSGKFVFSTSEAYLIENGKVTKPVKGATLIGSGIETMQQISMVGNDLKLDNGVGVCGKEGQSLPVGVGQPTLKVDNLTVGGTA [P0AGG8]	5.22 ± 1.1	3.75 ± 0.12	3.805 ± 0.0063	4.52 ± 0.13	3.73 ± 0.064	2.74 ± 0.14	5.14 ± 0.45	8.1 ± 0.85	3.88 ± 0.13	6.45 ± 0.19	5.11 ± 0.16	11 ± 1.7

— the supplement of paper PMC11246515
